Measurements published in patent US20250304965A1, “DOUBLE-STRANDED RNA MOLECULE AND PHARMACEUTICAL USE THEREOF” (MACAU UNIVERSITY OF SCIENCE AND TECHNOLOGY, priority 2022, published 2025).
Read-outs that look alike come from different tables or passages of the source. [Ψ] = pseudouridine

Assays:
Type in all cases: cell-based, human
HCT-8 cells = assay: MTT cytotoxicity analysis, colorectal cancer cells HCT-8; details: for IC50: HCT-8 colorectal cancer cells, 48 hours of treatment, Lipofectamine RNAiMAX transfection reagent, MTT, read-out: Median inhibitory concentration IC50; for inhibition of growth and proliferation (cell viability vs control and RNAiMAX group): colon cancer cells HCT-8, 6.25-200 nM, 48 hours, FIG. 6-8
Procedure: (§1) A2780 and HCT-8 cell lines were cultured in RPMI 1640 medium containing 10% FBS and 1% penicillin/streptomycin. HepG2 cell lines were cultured in MEM medium containing 10% FBS and 1% penicillin/streptomycin. All the above cell lines were cultured at 37° C. in a humidified atmosphere containing 5% CO2.
(§2) In the cytotoxicity analysis, exponentially growing cells of each cancer cell line were inoculated at a density of 5000 cells per well in a 100 μL medium in a 96-well microplate and allowed to adhere for 24 hours prior to treatment. Then obtained RNA molecules at successive concentrations with a nucleic acid transfer vector, namely, Lipofectamine™ RNAiMAX transfection reagent (Thermo Fisher Scientific, United States), were added to the cells. After 48 hours of treatment, MTT solution (50 μL per well, 1 mg/mL solution) was added to each well and incubated at 37° C. for 4 hours. Then 200 μL of dimethyl sulfoxide (DMSO) was added, and an optical density of the resulting solution was measured via calorimetry by using SpectraMax 190 microplate reader (Molecular Devices, United States) at 570 nm. Dose-response curves were obtained and IC50 values were calculated via GraphPad Prism 5 (GraphPad, United States). Each experiment was performed three times.
(§3) Before addition of the MTT solution, the inventor determined the cytotoxic effects and IC 50 of the GL1, GL2, GL4, and GL6 mimics at different concentrations of 6.25 nM, 12.5 nM, 25 nM, 50 nM, 100 nM, and 200 nM on A2780, HCT-8 and HepG2 cells. After 48 hours of the treatment of the double-stranded RNA molecules, the cell viability of these cells was compared with that of the control group and the RNAiMAX group. Paclitaxel was used in a comparative example. […] The results were compared with those of the control group and the RNAiMAX group using the transfection agent. For IC50, refer to Table 4. Paclitaxel was used in a comparative example.
(§4) Then the inventor specifically determined the cytotoxic effects and IC50 of the RNA molecules GL2 mimic and different chemically modified GL10, GL11 and GL12 mimics at different concentrations of 6.25 nM, 12.5 nM, 25 nM, 50 nM, 100 nM, and 200 nM on A2780, HCT-8 and HepG2 cells. […] For IC50, refer to Table 5. Paclitaxel was used in a comparative example.

HepG2 cells = assay: MTT cytotoxicity analysis, liver cancer cells HepG2; details: for IC50: HepG2 liver cancer cells, 48 hours of treatment, Lipofectamine RNAiMAX transfection reagent, MTT, read-out: Median inhibitory concentration IC50; for inhibition of growth and proliferation (cell viability vs control and RNAiMAX group): liver cancer cells HepG2, 6.25-200 nM, 48 hours, FIG. 6-8
Procedure: as §1, §2, §3, §4

A2780 cells = assay: MTT cytotoxicity analysis, ovarian cancer cells A2780; details: for inhibition of growth and proliferation (cell viability vs control and RNAiMAX group): ovarian cancer cells A2780, 6.25-200 nM, 48 hours, FIG. 6-8; for IC50: A2780 ovarian cancer cells, 48 hours of treatment, Lipofectamine RNAiMAX transfection reagent, MTT, read-out: Median inhibitory concentration IC50
Procedure: as §1, §2, §3, §4

| Molecule | IC50 (HCT-8 cells) [nM] | inhibition of growth and proliferation (cell viability vs control and RNAiMAX group) (HCT-8 cells) | IC50 (HepG2 cells) [nM] | inhibition of growth and proliferation (cell viability vs control and RNAiMAX group) (HepG2 cells) | inhibition of growth and proliferation (cell viability vs control and RNAiMAX group) (A2780 cells) | IC50 (HCT-8 cells; Homo sapiens) [nM] | IC50 (HepG2 cells; Homo sapiens) [nM] | IC50 (A2780 cells; Homo sapiens) [nM] | IC50 (A2780 cells) [nM] | inhibition of growth and proliferation (cell viability vs control and RNAiMAX group) (HCT-8 cells; listed as GL2) | inhibition of growth and proliferation (cell viability vs control and RNAiMAX group) (HepG2 cells; listed as GL2) | inhibition of growth and proliferation (cell viability vs control and RNAiMAX group) (A2780 cells; listed as GL2) |
| --- | --- | --- | --- | --- | --- | --- | --- | --- | --- | --- | --- | --- |
| GL6 mimic: double-stranded RNA from Ganoderma lucidum tRNA-Ile(GAU); antisense SEQ ID NO: 7, sense SEQ ID NO: 16, length 22 (antisense UCGAUUCUUCUUGGGCUUACCA; sense UGGUAAGCCCAAGAAGAAUCGA; RNA, backbone not given here) | 600 | effective in inhibiting growth and proliferation | 400 | effective in inhibiting growth and proliferation | effective in inhibiting growth and proliferation | – | – | – | – | – | – | – |
| CC(=O)O[C@H]1C(=O)[C@@]2(C)[C@H]([C@H](OC(=O)c3ccccc3)[C@]3(O)C[C@H](OC(=O)[C@H](O)[C@@H](NC(=O)c4ccccc4)c4ccccc4)C(C)=C1C3(C)C)[C@]1(OC(C)=O)CO[C@@H]1C[C@@H]2O [Taxol, Paclitaxel, reference compound] | – | – | – | – | – | 621 | 678 | 73.2 | – | – | – | – |
| GL7: double-stranded RNA from Ganoderma lucidum tRNA-Ile(GAU); antisense SEQ ID NO: 8, sense SEQ ID NO: 17, length 19 (antisense AUUCUUCUUGGGCUUACCA; sense UGGUAAGCCCAAGAAGAAU; RNA, backbone not given here) | – | have the effect of inhibiting the growth and proliferation of cancer cells | – | have the effect of inhibiting the growth and proliferation of cancer cells | have the effect of inhibiting the growth and proliferation of cancer cells | – | – | – | – | – | – | – |
| GL8: double-stranded RNA from Ganoderma lucidum tRNA-Ile(GAU); antisense SEQ ID NO: 9, sense SEQ ID NO: 18, length 22 (antisense AGUUCGAUUCUUCUUGGGCUUA; sense UAAGCCCAAGAAGAAUCGAACU; RNA, backbone not given here) | – | have the effect of inhibiting the growth and proliferation of cancer cells | – | have the effect of inhibiting the growth and proliferation of cancer cells | have the effect of inhibiting the growth and proliferation of cancer cells | – | – | – | – | – | – | – |
| GL4 mimic: double-stranded RNA from Ganoderma lucidum tRNA-Ile(GAU); antisense SEQ ID NO: 5, sense SEQ ID NO: 14, length 22 (antisense AAGCCUAUAAUUUAAAGGUAGA; sense UCUACCUUUAAAUUAUAGGCUU; RNA, backbone not given here) | 950 | effective in inhibiting growth and proliferation | 350 | effective in inhibiting growth and proliferation | effective in inhibiting growth and proliferation | – | – | – | – | – | – | – |
| GL5: double-stranded RNA from Ganoderma lucidum tRNA-Ile(GAU); antisense SEQ ID NO: 6, sense SEQ ID NO: 15, length 19 (antisense AAGCCUAUAAUUUAAAGGU; sense ACCUUUAAAUUAUAGGCUU; RNA, backbone not given here) | – | have the effect of inhibiting the growth and proliferation of cancer cells | – | have the effect of inhibiting the growth and proliferation of cancer cells | have the effect of inhibiting the growth and proliferation of cancer cells | – | – | – | – | – | – | – |
| GL9: double-stranded RNA from Ganoderma lucidum tRNA-Ile(GAU); antisense SEQ ID NO: 10, sense SEQ ID NO: 19, length 19 (antisense UCGAUUCUUCUUGGGCUUA; sense UAAGCCCAAGAAGAAUCGA; RNA, backbone not given here) | – | have the effect of inhibiting the growth and proliferation of cancer cells | – | have the effect of inhibiting the growth and proliferation of cancer cells | have the effect of inhibiting the growth and proliferation of cancer cells | – | – | – | – | – | – | – |
| GL1 mimic: double-stranded RNA from Ganoderma lucidum tRNA-Ile(GAU); antisense SEQ ID NO: 2, sense SEQ ID NO: 11, length 33 (nucleic acid, RNA, backbone not given here) antisense: AAGCCUAUAAUUUAAAGGUAGAAUAAUUUCUUG sense: CAAGAAAUUAUUCUACCUUUAAAUUAUAGGCUU | 84 | effective in inhibiting growth and proliferation | 350 | effective in inhibiting growth and proliferation | effective in inhibiting growth and proliferation | – | – | – | 225 | – | – | – |
| GL11 mimic: chemically modified GL2 double-stranded RNA (5-methyluridine); antisense SEQ ID NO: 21, sense SEQ ID NO: 25, length 41 (nucleic acid, RNA, backbone not given here; further chemistry not fully specified) antisense: AUAAGGAAUCUGUAGAAGTUCGAUUCUUCUUGGGCUUACCA sense: UGGUAAGCCCAAGAAGAAUCGAACUUCUACAGAUUCCUUAU | 31.5 | have a dose-dependent effect on inhibiting the growth and proliferation | 85.3 | have a dose-dependent effect on inhibiting the growth and proliferation | have a dose-dependent effect on inhibiting the growth and proliferation | – | – | – | 17.2 | – | – | – |
| GL10 mimic: chemically modified GL2 double-stranded RNA (5-methyluridine and pseudouridine); antisense SEQ ID NO: 20, sense SEQ ID NO: 24, length 41 (nucleic acid, antisense: RNA, [Ψ] at 20, backbone not given here; sense: RNA, backbone not given here; further chemistry not fully specified) antisense: AUAAGGAAUCUGUAGAAGTUCGAUUCUUCUUGGGCUUACCA sense: UGGUAAGCCCAAGAAGAAUCGAACUUCUACAGAUUCCUUAU | 39.6 | have a dose-dependent effect on inhibiting the growth and proliferation | 144 | have a dose-dependent effect on inhibiting the growth and proliferation | have a dose-dependent effect on inhibiting the growth and proliferation | – | – | – | 51.9 | – | – | – |
| GL2 mimic: double-stranded RNA from Ganoderma lucidum tRNA-Ile(GAU); antisense SEQ ID NO: 3, sense SEQ ID NO: 12, length 41 (nucleic acid, RNA, backbone not given here) antisense: AUAAGGAAUCUGUAGAAGUUCGAUUCUUCUUGGGCUUACCA sense: UGGUAAGCCCAAGAAGAAUCGAACUUCUACAGAUUCCUUAU | 36.3 | have a dose-dependent effect on inhibiting the growth and proliferation | 240 | have a dose-dependent effect on inhibiting the growth and proliferation | have a dose-dependent effect on inhibiting the growth and proliferation | – | – | – | 57.2 | effective in inhibiting growth and proliferation | effective in inhibiting growth and proliferation | effective in inhibiting growth and proliferation |
